Reference: patent US20190194268A1 (DONALD DANFORTH PLANT SCIENCE CENTER, published 2019)

Assays:
F. graminearum = assay type: cell-based, Fusarium graminearum; settings: γ-core motif variants
F. graminearum PH-1 = assay type: cell-based, Fusarium graminearum; settings: γ-core motif variants

B1: MtDef5FL1_V1 (other)
chain: KLCQAASTTWSGPCLNTGNCKRQCINVEHATFGACAAQGFGFACFCYKKCAPKKVEPKLCEAASKTWSGPCLISGNCKRQCINVEHATSGACAAQGIGFACFCKKKC
notes: Alanine variant expressed in P. pastoris; also called MtDef5FL1 γ-core motif variant V1
F. graminearum
  ability to permeabilize the plasma membrane (SG uptake) compared with wild-type MtDef5FL1: lost its ability to permeabilize the fungal plasma membrane almost completely
F. graminearum PH-1
  reduction in antifungal activity against F. graminearum relative to wild-type MtDef5FL1: 4 fold
